Results on three compounds are retold here after article PMC3035770 (Biochemistry, 2011).

The target of experiment [1] is PKR (Homo sapiens) (UniProt P19525). To be noted: cited from earlier work.
Experiment [2] shares this target. The note with it: cited from earlier work. The source holds these as a separate data set.
For experiment [3] the target is unchanged. To be noted: cited from earlier work. The source holds these as a separate data set.
Experiment [4] deals with bovine serum albumin (BSA) (Bos taurus, UniProt P02769). Put plainly: fluorescence polarization, direct titration. It is filed as binding.
In experiment [5] the target is T1, PKR (double-stranded RNA-activated protein kinase) (Homo sapiens, UniProt P19525). Description: fluorescence polarization, direct titration. It is filed as binding. For orientation: Polarisation of emitted light reports the rotation of a fluorescent probe.
Experiment [6] addresses T1, PKR (double-stranded RNA-activated protein kinase). Put plainly: radiolabeled ATP binding, ZipTip-C4 separation.

Like-named read-outs stand apart in the source and are kept apart here.

Chain of bovine serum albumin (BSA) (P02769 25-607): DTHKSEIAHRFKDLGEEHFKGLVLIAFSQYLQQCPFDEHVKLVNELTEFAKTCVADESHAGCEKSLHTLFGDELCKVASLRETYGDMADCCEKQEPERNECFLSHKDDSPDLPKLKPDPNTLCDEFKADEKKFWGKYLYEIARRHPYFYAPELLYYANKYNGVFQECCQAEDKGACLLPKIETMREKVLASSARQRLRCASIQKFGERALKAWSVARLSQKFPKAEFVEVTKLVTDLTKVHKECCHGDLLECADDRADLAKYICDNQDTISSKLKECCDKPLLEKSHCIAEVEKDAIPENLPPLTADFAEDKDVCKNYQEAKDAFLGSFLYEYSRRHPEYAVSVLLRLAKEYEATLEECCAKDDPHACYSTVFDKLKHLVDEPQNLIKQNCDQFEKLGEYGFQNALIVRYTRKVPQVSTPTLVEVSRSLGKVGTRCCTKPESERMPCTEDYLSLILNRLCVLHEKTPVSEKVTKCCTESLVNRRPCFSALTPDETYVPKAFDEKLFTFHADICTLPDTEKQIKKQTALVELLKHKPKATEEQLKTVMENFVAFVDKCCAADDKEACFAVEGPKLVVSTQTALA

Turning to PKR (from UniProt P19525), the dissociation constant Kd was 75 µM in experiment [1], 500 µM in experiment [2] and 20 µM in experiment [3].
`CC1=CC(C)=[N+]2C1=Cc1ccc(CCCCCCCCCCCCCCCC(=O)O)n1[B-]2(F)F` [Bodipy-C16, 4,4-difluoro-5,7-dimethyl-4-bora-3a,4a-diaza-s-indacene-3-hexadecanoic acid]: the equilibrium dissociation constant (Kd) came to 0.0292 ± 0.00185 µM in experiment [4] and 0.0232 ± 0.00128 µM in experiment [5].
Take `Nc1ncnc2c1ncn2[C@@H]1O[C@H](COP(=O)(O)OP(=O)(O)OP(=O)(O)O)[C@@H](O)[C@H]1O` [ATP]: the “% bound” value in experiment [6] worked out at 16.61 % bound.

Usually Kd stands for the free concentration of one partner at which half of the binding sites on the other are occupied at equilibrium, for simple one-to-one binding.
